From patent US20260184748A1 (University of Pennsylvania, published 2026)
Where no end group is shown, it is not given here.

Tests used:
Experiment in all cases: cell-based or functional assay
HCRTR1 = molecular target: T1, HCRTR1 (UniProt O43613 1-425)
T1 sequence (looked up): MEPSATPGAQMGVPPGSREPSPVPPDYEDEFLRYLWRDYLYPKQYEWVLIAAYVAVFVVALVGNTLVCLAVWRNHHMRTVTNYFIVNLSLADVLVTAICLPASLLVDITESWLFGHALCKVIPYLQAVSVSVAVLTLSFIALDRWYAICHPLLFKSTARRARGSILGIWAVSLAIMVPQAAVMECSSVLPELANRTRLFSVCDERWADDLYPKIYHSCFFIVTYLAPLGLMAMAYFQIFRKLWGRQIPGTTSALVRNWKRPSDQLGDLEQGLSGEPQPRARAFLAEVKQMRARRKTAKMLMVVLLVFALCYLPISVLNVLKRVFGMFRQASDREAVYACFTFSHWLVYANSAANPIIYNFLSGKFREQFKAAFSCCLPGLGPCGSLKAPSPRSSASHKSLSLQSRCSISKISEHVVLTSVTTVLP

BDKRB1 = molecular target: T2, BDKRB1 (UniProt P46663 1-353)
T2 sequence (looked up): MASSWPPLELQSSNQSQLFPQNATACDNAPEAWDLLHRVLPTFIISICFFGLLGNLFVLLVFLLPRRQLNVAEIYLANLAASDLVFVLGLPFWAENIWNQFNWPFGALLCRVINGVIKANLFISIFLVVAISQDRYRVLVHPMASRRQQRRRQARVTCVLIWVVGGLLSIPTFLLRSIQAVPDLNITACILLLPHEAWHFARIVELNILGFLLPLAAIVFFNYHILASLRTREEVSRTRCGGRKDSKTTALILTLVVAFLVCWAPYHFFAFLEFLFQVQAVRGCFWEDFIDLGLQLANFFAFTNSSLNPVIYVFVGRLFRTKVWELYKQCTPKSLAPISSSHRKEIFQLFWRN

CALCR = molecular target: T3, CALCR (UniProt P30988 25-474, limits assumed)
T3 sequence (looked up): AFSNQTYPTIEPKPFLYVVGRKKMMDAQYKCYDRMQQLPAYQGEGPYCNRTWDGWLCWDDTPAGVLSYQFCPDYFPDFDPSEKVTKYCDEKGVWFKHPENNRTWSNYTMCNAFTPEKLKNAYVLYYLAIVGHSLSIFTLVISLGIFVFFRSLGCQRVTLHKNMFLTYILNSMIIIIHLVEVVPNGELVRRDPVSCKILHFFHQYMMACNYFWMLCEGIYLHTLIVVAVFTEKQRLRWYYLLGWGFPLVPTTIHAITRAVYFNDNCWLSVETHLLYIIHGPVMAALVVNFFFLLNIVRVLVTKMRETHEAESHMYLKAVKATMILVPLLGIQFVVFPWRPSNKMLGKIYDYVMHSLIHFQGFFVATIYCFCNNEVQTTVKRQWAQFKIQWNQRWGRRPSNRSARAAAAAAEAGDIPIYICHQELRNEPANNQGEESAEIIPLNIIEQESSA

MCHR2 = MCHR2 (UniProt Q969V1 1-340)
MC3R = MC3R (UniProt P41968 1-323)
GPR109A = GPR109A (UniProt Q8TDS4 1-363)
LHCGR = LHCGR (UniProt P22888 27-699)
MCHR1 = MCHR1 (UniProt Q99705 1-353)
BRS3 = molecular target: T4, BRS3 (UniProt P32247 1-399)
T4 sequence (looked up): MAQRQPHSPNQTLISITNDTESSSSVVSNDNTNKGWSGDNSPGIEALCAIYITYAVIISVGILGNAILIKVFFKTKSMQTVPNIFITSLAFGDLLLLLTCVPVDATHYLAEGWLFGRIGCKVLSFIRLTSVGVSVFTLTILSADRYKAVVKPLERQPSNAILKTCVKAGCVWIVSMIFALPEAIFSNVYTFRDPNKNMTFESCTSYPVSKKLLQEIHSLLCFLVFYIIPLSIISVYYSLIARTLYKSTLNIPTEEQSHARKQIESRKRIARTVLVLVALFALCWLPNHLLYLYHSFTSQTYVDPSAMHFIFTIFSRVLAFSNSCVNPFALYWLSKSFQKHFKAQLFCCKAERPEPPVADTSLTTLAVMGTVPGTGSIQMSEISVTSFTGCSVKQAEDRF

P2RY11 = molecular target: T5, P2RY11 (UniProt Q96G91 1-374)
T5 sequence (looked up): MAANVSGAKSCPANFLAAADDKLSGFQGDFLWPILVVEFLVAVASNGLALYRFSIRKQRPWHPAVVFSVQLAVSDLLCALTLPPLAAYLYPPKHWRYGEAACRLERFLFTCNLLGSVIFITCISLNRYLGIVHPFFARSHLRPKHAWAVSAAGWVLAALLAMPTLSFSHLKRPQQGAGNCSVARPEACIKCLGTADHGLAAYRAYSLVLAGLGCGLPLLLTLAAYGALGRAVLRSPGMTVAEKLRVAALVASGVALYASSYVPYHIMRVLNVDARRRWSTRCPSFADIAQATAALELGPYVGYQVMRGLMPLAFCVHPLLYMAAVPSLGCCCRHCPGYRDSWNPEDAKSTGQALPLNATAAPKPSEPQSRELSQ

ADRB2 = ADRB2 (UniProt P07550 1-413)
HCRTR2 = molecular target: T6, HCRTR2 (UniProt O43614 1-444)
T6 sequence (looked up): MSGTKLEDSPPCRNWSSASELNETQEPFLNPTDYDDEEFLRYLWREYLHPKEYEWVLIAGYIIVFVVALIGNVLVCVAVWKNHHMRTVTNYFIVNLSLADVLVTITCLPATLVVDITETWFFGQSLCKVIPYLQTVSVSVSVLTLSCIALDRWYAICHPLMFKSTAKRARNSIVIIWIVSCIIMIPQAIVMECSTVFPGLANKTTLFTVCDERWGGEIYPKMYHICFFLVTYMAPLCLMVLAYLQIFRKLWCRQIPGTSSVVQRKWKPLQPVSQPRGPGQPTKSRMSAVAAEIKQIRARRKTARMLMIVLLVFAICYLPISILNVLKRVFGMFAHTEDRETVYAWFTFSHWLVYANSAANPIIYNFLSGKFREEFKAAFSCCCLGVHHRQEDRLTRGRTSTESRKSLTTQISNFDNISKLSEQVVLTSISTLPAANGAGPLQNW

Sequence of MC3R (P41968 whole entry): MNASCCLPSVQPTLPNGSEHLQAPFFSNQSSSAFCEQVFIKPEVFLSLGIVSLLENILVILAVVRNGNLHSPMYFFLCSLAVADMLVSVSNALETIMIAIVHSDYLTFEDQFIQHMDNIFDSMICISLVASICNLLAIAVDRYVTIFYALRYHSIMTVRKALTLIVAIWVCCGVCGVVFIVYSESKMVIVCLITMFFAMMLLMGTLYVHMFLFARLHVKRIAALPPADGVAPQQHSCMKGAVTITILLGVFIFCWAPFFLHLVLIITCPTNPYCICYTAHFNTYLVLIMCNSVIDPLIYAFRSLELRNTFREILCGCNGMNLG
Sequence of LHCGR (P22888 27-699 limits assumed): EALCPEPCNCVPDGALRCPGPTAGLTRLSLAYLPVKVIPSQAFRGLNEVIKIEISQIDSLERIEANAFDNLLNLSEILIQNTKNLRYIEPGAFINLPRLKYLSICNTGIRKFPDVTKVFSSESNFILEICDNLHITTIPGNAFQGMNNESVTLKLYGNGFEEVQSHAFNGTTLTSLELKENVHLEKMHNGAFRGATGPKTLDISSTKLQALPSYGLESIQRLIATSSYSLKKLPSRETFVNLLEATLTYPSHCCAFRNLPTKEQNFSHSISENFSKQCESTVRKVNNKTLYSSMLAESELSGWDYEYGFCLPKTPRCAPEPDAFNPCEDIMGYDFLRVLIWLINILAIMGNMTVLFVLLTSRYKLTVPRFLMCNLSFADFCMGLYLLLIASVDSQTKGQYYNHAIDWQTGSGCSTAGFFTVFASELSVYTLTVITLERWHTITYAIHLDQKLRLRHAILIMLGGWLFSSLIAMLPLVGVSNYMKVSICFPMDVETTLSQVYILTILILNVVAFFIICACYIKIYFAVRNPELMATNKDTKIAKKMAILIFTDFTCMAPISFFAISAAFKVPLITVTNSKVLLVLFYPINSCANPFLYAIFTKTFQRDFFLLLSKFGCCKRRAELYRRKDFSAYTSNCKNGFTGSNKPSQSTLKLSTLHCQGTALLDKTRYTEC
Sequence of MCHR1 (Q99705 whole entry): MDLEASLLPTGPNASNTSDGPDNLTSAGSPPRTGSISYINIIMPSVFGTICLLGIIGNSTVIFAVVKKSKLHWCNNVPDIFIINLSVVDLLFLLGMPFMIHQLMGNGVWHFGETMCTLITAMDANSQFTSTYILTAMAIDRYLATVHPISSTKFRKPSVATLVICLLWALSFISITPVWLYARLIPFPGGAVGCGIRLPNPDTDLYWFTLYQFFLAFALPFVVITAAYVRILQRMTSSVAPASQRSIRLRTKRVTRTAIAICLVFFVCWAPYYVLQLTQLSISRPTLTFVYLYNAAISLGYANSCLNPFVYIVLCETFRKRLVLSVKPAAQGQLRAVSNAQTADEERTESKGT
Sequence of MCHR2 (Q969V1 whole entry): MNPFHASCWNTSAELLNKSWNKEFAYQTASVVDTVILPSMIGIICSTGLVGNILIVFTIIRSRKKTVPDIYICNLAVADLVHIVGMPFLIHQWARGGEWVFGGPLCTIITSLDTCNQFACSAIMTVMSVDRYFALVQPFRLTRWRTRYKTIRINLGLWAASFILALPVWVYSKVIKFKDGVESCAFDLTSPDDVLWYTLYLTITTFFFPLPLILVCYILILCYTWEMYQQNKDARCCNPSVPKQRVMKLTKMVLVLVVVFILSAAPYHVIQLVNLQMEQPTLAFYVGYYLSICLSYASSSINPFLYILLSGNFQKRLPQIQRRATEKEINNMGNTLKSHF
Sequence of GPR109A (Q8TDS4 whole entry): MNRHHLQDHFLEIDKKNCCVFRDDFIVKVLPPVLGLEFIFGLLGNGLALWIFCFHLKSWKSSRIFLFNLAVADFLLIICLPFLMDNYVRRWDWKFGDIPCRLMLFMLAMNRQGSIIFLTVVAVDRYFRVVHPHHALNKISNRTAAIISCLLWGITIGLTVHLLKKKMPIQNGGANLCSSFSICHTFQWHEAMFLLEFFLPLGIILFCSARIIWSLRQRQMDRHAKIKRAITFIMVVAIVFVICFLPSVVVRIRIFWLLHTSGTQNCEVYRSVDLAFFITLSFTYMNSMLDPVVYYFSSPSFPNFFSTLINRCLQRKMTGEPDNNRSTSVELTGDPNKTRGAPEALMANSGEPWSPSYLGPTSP

QATVGDVNTDRPGLLDLK (also: synthesised on Rink amide resin, C-terminal amide not given here outright) [octadecaneuropeptide (ODN)]
% Activity, arrestin, antagonist mode, 2.5 uM (HCRTR1): -1.7% | % Activity, arrestin, antagonist mode, 2.5 uM (BDKRB1): -5.7% | % Activity, arrestin, antagonist mode, 2.5 uM (CALCR): -22.3% | % Activity, arrestin, antagonist mode, 2.5 uM (MCHR2): -10.5% | % Activity, arrestin, antagonist mode, 2.5 uM (MC3R): -2.1% | % Activity, arrestin, antagonist mode, 2.5 uM (GPR109A): -16% | % Activity, arrestin, antagonist mode, 2.5 uM (LHCGR): 7.2% | % Activity, arrestin, antagonist mode, 2.5 uM (MCHR1): 5.1% | % Activity, arrestin, antagonist mode, 2.5 uM (BRS3): -5.8% | % Activity, arrestin, antagonist mode, 2.5 uM (P2RY11): -5.6% | % Activity, arrestin, antagonist mode, 2.5 uM (ADRB2): -11.7% | % Activity, arrestin, antagonist mode, 2.5 uM (HCRTR2): -2.7%
